Reference: article PMC12204462

test system: AsCas12a; assay: BLI; conditions: not stated in material

Row | Substance | Kd [nM]
1 | cDNA with 5' handle | < 37
2 | ΨDNA (cDNA with 3' handle; BLI) | 24.5
3 | crRNA (BLI) | 3.7
